# Results as given in the MegaScale stability set (Tsuboyama et al. 2023).
# B1: HEEH_KT_rd6_0790 (parent)
# chain: SEEEEEEWRRAKERGEEIIILGILWKPNDEEAERRIKEALRRV
# Variants of: B1
# Assay: folding stability dG (cDNA display proteolysis); higher = more stable
# Conditions: PBS, room temperature
row,Variant,folding stability dG [kJ/mol]
1,SEEEEEEWRRAKERGEEIIILGILWKPNDEEAERRIKEALRRA [V43A],9.95
2,SEEEEEEWRRAKERGEEIIILGILWKPNDEEAERRIKEALRRC [V43C],9.88
3,SEEEEEEWRRAKERGEEIIILGILWKPNDEEAERRIKEALRRM [V43M],10.4
4,SEEEEEEWRRAKERGEEIIILGILWKPNDEEAERRIKEALRRT [V43T],7.85
5,SEEEEEEWRRAKERGEEIIILGILWKPNDEEAERRIKEALRRK [V43K],10.8
6,SEEEEEEWRRAKERGEEIIILGILWKPNDEEAERRIKEALRRW [V43W],10.3
7,SEEEEEEWRRAKERGEEIIILGILWKPNDEEAERRIKEALRRP [V43P],7.68
8,SEEEEEEWRRAKERGEEIIILGILWKPNDEEAERRIKEALRRQ [V43Q],9.47
9,SEEEEEEWRRAKERGEEIIILGILWKPNDEEAERRIKEALRRG [V43G],7.7
10,SEEEEEEWRRAKERGEEIIILGILWKPNDEEAERRIKEALRRS [V43S],9.25
11,SEEEEEEWRRAKERGEEIIILGILWKPNDEEAERRIKEALRRY [V43Y],9.95
12,SEEEEEEWRRAKERGEEIIILGILWKPNDEEAERRIKEALRRD [V43D],7.09
13,SEEEEEEWRRAKERGEEIIILGILWKPNDEEAERRIKEALRRE [V43E],8.69
14,SEEEEEEWRRAKERGEEIIILGILWKPNDEEAERRIKEALRRI [V43I],9.68
15,SEEEEEEWRRAKERGEEIIILGILWKPNDEEAERRIKEALRRF [V43F],10.5
16,SEEEEEEWRRAKERGEEIIILGILWKPNDEEAERRIKEALRRH [V43H],10.3
17,SEEEEEEWRRAKERGEEIIILGILWKPNDEEAERRIKEALRRR [V43R],11.5
18,SEEEEEEWRRAKERGEEIIILGILWKPNDEEAERRIKEALRRL [V43L],11.7
19,SEEEEEEWRRAKERGEEIIILGILWKPNDEEAERRIKEALRRN [V43N],7.78
20,SEEEEEEWRRAKERGEEIIILGILWKPNDEEAERRIKEALKRV [R41K],8.63

row,Variant,folding stability dG [kJ/mol]
1,SEEEEEEWRRAKERGEEIIILGILWKPNDEEAERRIKEALVRV [R41V],7.32
2,SEEEEEEWRRAKERGEEIIILGILWKPNDEEAERRIKEALMRV [R41M],7.96
3,SEEEEEEWRRAKERGEEIIILGILWKPNDEEAERRIKEALTRV [R41T],7.59
4,SEEEEEEWRRAKERGEEIIILGILWKPNDEEAERRIKEALYRV [R41Y],7.26
5,SEEEEEEWRRAKERGEEIIILGILWKPNDEEAERRIKEALCRV [R41C],10.2
6,SEEEEEEWRRAKERGEEIIILGILWKPNDEEAERRIKEALWRV [R41W],6.97
7,SEEEEEEWRRAKERGEEIIILGILWKPNDEEAERRIKEALERV [R41E],7.9
8,SEEEEEEWRRAKERGEEIIILGILWKPNDEEAERRIKEALNRV [R41N],8.26
9,SEEEEEEWRRAKERGEEIIILGILWKPNDEEAERRIKEALPRV [R41P],3.72
10,SEEEEEEWRRAKERGEEIIILGILWKPNDEEAERRIKEALSRV [R41S],8.12
11,SEEEEEEWRRAKERGEEIIILGILWKPNDEEAERRIKEALGRV [R41G],7.26
12,SEEEEEEWRRAKERGEEIIILGILWKPNDEEAERRIKEALLRV [R41L],8.64
13,SEEEEEEWRRAKERGEEIIILGILWKPNDEEAERRIKEALFRV [R41F],7.37
14,SEEEEEEWRRAKERGEEIIILGILWKPNDEEAERRIKEALDRV [R41D],7.51
15,SEEEEEEWRRAKERGEEIIILGILWKPNDEEAERRIKEALHRV [R41H],7.86
16,SEEEEEEWRRAKERGEEIIILGILWKPNDEEAERRIKEALIRV [R41I],7.37
17,SEEEEEEWRRAKERGEEIIILGILWKPNDEEAERRIKEALQRV [R41Q],8.03
18,SEEEEEEWRRAKERGEEIIILGILWKPNDEEAERRIKEALARV [R41A],8.67
19,SEEEEEEWRRAKERGEEIIILGILWKPNDEEAERRIKEAARRV [L40A],4.68
20,SEEEEEEWRRAKERGEEIIILGILWKPNDEEAERRIKEAIRRV [L40I],8.23

row,Variant,folding stability dG [kJ/mol]
1,SEEEEEEWRRAKERGEEIIILGILWKPNDEEAERRIKEAKRRV [L40K],4.45
2,SEEEEEEWRRAKERGEEIIILGILWKPNDEEAERRIKEASRRV [L40S],3.3
3,SEEEEEEWRRAKERGEEIIILGILWKPNDEEAERRIKEAFRRV [L40F],7.46
4,SEEEEEEWRRAKERGEEIIILGILWKPNDEEAERRIKEAQRRV [L40Q],4.2
5,SEEEEEEWRRAKERGEEIIILGILWKPNDEEAERRIKEAPRRV [L40P],2.44
6,SEEEEEEWRRAKERGEEIIILGILWKPNDEEAERRIKEARRRV [L40R],5
7,SEEEEEEWRRAKERGEEIIILGILWKPNDEEAERRIKEADRRV [L40D],2.23
8,SEEEEEEWRRAKERGEEIIILGILWKPNDEEAERRIKEACRRV [L40C],6.49
9,SEEEEEEWRRAKERGEEIIILGILWKPNDEEAERRIKEAERRV [L40E],3.41
10,SEEEEEEWRRAKERGEEIIILGILWKPNDEEAERRIKEANRRV [L40N],2.38
11,SEEEEEEWRRAKERGEEIIILGILWKPNDEEAERRIKEAMRRV [L40M],7.37
12,SEEEEEEWRRAKERGEEIIILGILWKPNDEEAERRIKEAGRRV [L40G],2.45
13,SEEEEEEWRRAKERGEEIIILGILWKPNDEEAERRIKEATRRV [L40T],3.27
14,SEEEEEEWRRAKERGEEIIILGILWKPNDEEAERRIKEAYRRV [L40Y],4.61
15,SEEEEEEWRRAKERGEEIIILGILWKPNDEEAERRIKEAHRRV [L40H],5.26
16,SEEEEEEWRRAKERGEEIIILGILWKPNDEEAERRIKEAWRRV [L40W],6.06
17,SEEEEEEWRRAKERGEEIIILGILWKPNDEEAERRIKEAVRRV [L40V],5.24
18,SEEEEEEWRRAKERGEEIIILGILWKPNDEEAERRIKEILRRV [A39I],7.56
